The record followed here is the DeepSol protein solubility set.

The data set can be described thus: soluble on expression in E. coli; label from the status in PepcDB or PDB records.
As to “MDRVALKPFRRIAVILLAGAVIATSTSCSRDERKKEEEKHLESMMSILVQVQKNLGRIRQKEAVVVRLSSDVEGRKPKSAEQIGREINTNIRFIDSTLSASKNLVATLEKQNHESQYRIAALDRMTGQLKGELDKKELELGAMKREIAKLNRQIARLTNTVDVMDEAISDQEDQMVKAYYVVGTVDQLVSKGILVPPGPFSRFFGMRPVLANDFDLRPFRQVDITETKDIYFDKPVSRLHVITPHTKGSYELVGGKTSSLLLIRNEAEFWKKSRCLVIVVE”, the “soluble on expression in E. coli” value is “not soluble”.
For “MGSDKIHHHHHHMAIQQLEKPEHAGRRTAPEITVSGIGKRYGATPVLMDVTLSVTPGEIHGIMGENGAGKSTLLKILGGAIMADSGTMELDGNPVRITTPRDAISQGISLISQELALIPNLSVLENVFLGRWSNRGSLLRPTKDGDHFARLLEETGFDLDPRATVGNLPIGQQQQVEILKALARGAKVLCMDEPTAVLNEAEKEKLLQVIKRLAQTGTTILIVSHYLEEVLELVDRVTILRDGQHIVTEDAAGHTPESLVRLMVGRDVDFLLPEIRQVQSQADTVLRVVGLTSAKVKEISFQVRRGEILGIAGLVGSGRSETLLAVFGADRTTGGHVEVNGRRIRASSIRDAIKAGIALIPESRKEQGLVMSRPASENIALSTLSGRSWAGFVSARREKAAVKDVSRSVDLRGARPGQPIANLSGGNQQKALFAKWLLDPPAVLLVDEPTRGVDIAAKARIHSIIAELAAKGTAVIVVSSELEEVLGLSHRIHVMRHGRIVAEFDRNASRDEVMTSAFLK”, the “soluble on expression in E. coli” value was “not soluble”.
Consider “SLYANYKRVYENEALETLKVYTTFLRNALIEVNTLMVHSQHFYKSFMGNLKYILDSVAVNKLKSNYNKDMPVVVVSAGPSLEKNIRFLKDCQDKCIIITGGRTLKTLLDLDIKPDYVCVVDPDVPAYDVMRGTFDCTAPLLFCEYTYYEILRDYKGEKIFFNDIGMLGLQKEFLNYDVDNIFEGGSVAHVCAGLGVYIGGDPIIFIGQDLAYTNDKAHADSAGDTNVEGDKKIVYVEDINGDIIKSDSVLNFYRIKLEEMTQLFKENNFINSTEGGANIKGTKIIPLKEVLKKFCLNKKKDYTLGENIGKYVSREQVVCKLMDAKKIMNKVKKEIEASIDLCSEFLEKENRWNKTIIDNINRKLSKTDKLINSSIGEMEFMRNLILPNIYESSMNKEYKQKYNETEKEKIKRVYKKNILLYNGIKTSIMEAGPEIEKCIKSLKES”, for which the “soluble on expression in E. coli” value is on record as “not soluble”.
As to “FLYSNTSYRTLYLAAILYKAKADIRIVHDHLNHTSLADLKFKKYVYNHFKTQGQVIYFICTKKIQKRLRMTADQCARVNLLSNIAD”, the “soluble on expression in E. coli” value was “soluble”.
Take “MKKVSIIIPFKGQTEAELMLPLSSIYNQIGVDLSQLDIHLVNDGGKTIDLSKFDVLADRLEIHYHEIPNGGPGVARQYGIDNSISEYIMFIDADDVLYYVGALWPFYNASNQGHQMIRASYWEQIAGNPYTYTVHGNGDRKAAYGKWYKRSYIEMLGLRFMPDLPIYEDTYFVGLACELATDTCFLEEKVYMWLANPNSITRTVENKFNYQAHIYARENRYWFEMIRKWKPECLEHHHHHH”: the “soluble on expression in E. coli” value is given as “soluble”.
On to “LVFDEEGNSSWIATDTVKVAASRPVELNPFYIDTVYEVSGKKIAYMVYNEFSTGPNNQATDTEYREQMKQIFARFKGQSPDAFILDLRYNPGGYLSCATDLGSYLAPAADLGKVFCTTLYNDISDPQKIDFPLNTGLASENLNLSKLYVLTSKFTASASEAVINCLRPYIGTENVVVIGETTVGKNVAMEPYQDERYNFILWPVVAYVLNSAGQANYVNGITPDFTLSER”, for which the “soluble on expression in E. coli” value is “not soluble”.
Regarding “GPGSMTDALAKPIRVCVLACSYEGSDSELRAYEGDLIQTPQNYFCSEDAQCTFHLELIKKATAYRQIRQLVMSGKFDVFYNQCDGAKDEDRAGVEVVEALEEFKVPYTGAISKYYEMSKPDMKLVAYYYNIATANYIVLAPGDDIESLCGDLQFPCIIKHISGYSSVGMDKSCKVYDMAHLVDRAARFMAEYQFALVEEFVNGDEATILACSDSTQPEGVRVFPPVQVAFPEGEDFKHFQLKWASYEGMKWTQVPQEDPAMQNMIDIARSAFKRMMGGVGYGRIDVRIDRQKNHKVVFLEINPNCGIMYPYGQEGSADWILRLNRGFQQREFAMLQIREAITRCQRERLLYVRRFDPVRGYHLRAAEDISVGTIIFQDECRPVRLCTKPYALQHFSKADYVDFQHNAWPVGRDGHYYALWDHDPAQWRAFNHSCEPNMSFAPMRSLDVVALRNIPKGEELTMDYRQFMDSTMPGFQCNCGTEKCEGFVSPGSLVDSPTAKIASQPTVALRHNIAVRLNPI”, the “soluble on expression in E. coli” value was “soluble”.
In the case of “MKWHGLPACDSNPNSTTEFCRTRRPTKTMNSPATQTATPTNVDIASIVEQVLRRLRDQTNTNGSTSKPATHAPSAHVLSDKVISVDVIRGIPSGVTQVQLSGGIVTPAARDEMRARGISLAGAESTSAAAIKPASNSGKRFIQLHTDTSSKSIRDALARQLALRGVDHCPRAHRSVIVTKHPATALLGRIQSGARAVLITRLEDIPRFASEIDADTFVLDMQRFNLVALVNAATSIAQLSTSSTSQEAT”, the “soluble on expression in E. coli” value is “not soluble”.
In the case of “MRGSHHHHHHGSNSLSEANTKFMFDLFQQFRKSKENNIFYSPISITSALGMVLLGAKDNTAQQIKKVLHFDQVTENTTGKAATYHVDRSGNVHHQFQKLLTEFNKSTDAYELKIANKLFGEKTYLFLQEYLDAIKKFYQTSVESVDFANAPEESRKKINSWVESQTNEKIKNLIPEGNIGSNTTLVLVNAIYFKGQWEKKFNKEDTKEEKFWPNKNTYKSIQMMRQYTSFHFASLEDVQAKVLEIPYKGKDLSMIVLLPNEIDGLQKLEEKLTAEKLMEWTSLQNMRETRVDLHLPRFKVEESYDLKDTLRTMGMVDIFNGDADLSGMTGSRGLVLSGVLHKAFVEVTEEGAEAAAATAVVGFGSSPTSTNEEFHCNHPFLFFIRQNKTNSILFYGRFSSP”, the “soluble on expression in E. coli” value is given as “soluble”.
Next, “MKVGVVGTGFVGSTAAFALVLRGSCSELVLVDRDEDRAQAEAEDIAHAAPVSHGTRVWHGGHSELADAQVVILTAGANQKPGESRLDLLEKNADIFRELVPQITRAAPDAVLLVTSNPVDLLTDLATQLAPGQPVIGSGTVLDSARFRHLMAQHAGVDGTHAHGYVLGEHGDSEVLAWSSAMVAGMPVADFMQAQNLPWNEQVRAKIDEGTRNAAASIIEGKRATYYGIGAALARITEAVLRDRRAVLTVSAPTPEYGVSLSLPRVVGRQGVLSTLHPKLTGDEQQKLEQSAGVLRGFKQQLGL”: “soluble”; “KQATMKNAALKQLTKDADEILHLIKVQLDNLTLPSCPLYEEVLDTQMFGLQKEVDFAVKLGLVDREDGKQIMLRLEKELSKLHEAFTLV”: “not soluble”.
On to “MERTVVETRYGRLRGEMNEGVFVWKGIPYAKAPVGERRFLPPEPPDAWDGVREATSFGPVVMQPSDPIFSGLLGRMSEAPSEDGLYLNIWSPAADGKKRPVLFWIHGGAFLFGSGSSPWYDGTAFAKHGDVVVVTINYRMNVFGFLHLGDSFGEAYAQAGNLGILDQVAALRWVKENIAAFGGDPDNITIFGESAGAASVGVLLSLPEASGLFRRAMLQSGSGSLLLRSPETAMAMTERILDKAGIRPGDRERLLSIPAEELLRAALSLGPGVMYGPVVDGRVLRRHPIEALRYGAASGIPILIGVTKDEYNLFTLTDPSWTKLGEKELLDRINREVGPVPEEAIRYYKETAEPSAPTWQTWLRIMTYRVFVEGMLRTADAQAAQGADVYMYRFDYETPVFGGQLKAAHALELPFVFHNLHQPGVANFVGNRPEREAIANEMHYAWLSFARTGDPNGAHLPEAWPAYTNERKAAFVFSAASHVEDDPFGRERAAWQGR”, for which the “soluble on expression in E. coli” value is on record as “soluble”.
Next, “MGSDKIHHHHHHMQALQTFNFEELPVRTLEVDGEPYFIGKDVADILGYANGRDALSKHVDEDDKKVLTSRNTTLENLPNRGLTAVNESGLYSLIFSSKLESAKRFKRWVTSDVLPAIRKYGIYATDNVIEQTLKDPDYIITVLTEYKKEKEQNLLLQQEIGELKPKADYVDEILKSTGTLATTQIAADYGISAQKLNKLLHEARLQRKVNKQWVLYSEHMGKSYTDSDTITIVRSDGREDTVLQTRWTQKGRLKIHEIMTEFGYEANLGGA”: “not soluble”.
The entry for “PLGVSAAGALDRASLRRANRLVGNASSAAAIESVNGGLTVEAVGDQVIAVTGAPTTLTIESPSWVGSDDDDGGARPGGKRTVPMAAPFALLDGELLTLGAPESGFRNYVAIRGGVDAPEVLGSRSADTMSGIGPAPLAIRQVLATGEQTASTAVGAPELQPDFPGAGVTVLDVVPGPRADWFDQEALDSLCNQEWLVTPQSNRVGMRLDGKPLERTREGELPSEGTMAGALQIPPAGLPVLFLADHPITGGYPVIGVVRDEHLDRAAQVPIGGRIRFRLVPDSADFTTTTTKTPEK” is “not soluble”; for “RRSRKLERKKIVLGVTGSIAAVETVKLARELVRRGADVTAVMSRAARKIIHPYALEFATGKRVVTEITGSIEHVNLLGEYGDADLFLIAPCTANTISKIAQGIDDTPVTTFATTALGSGKPIIIVPAMHEAMMRNKAVLENIQRLIDMGIEFVQPRIEEGKAKFPSTETICLHVERELYPKEMKGKRVV” it is “not soluble”; for “MGSDKIHHHHHHMTISEARLSPQVNLLPIKRHSNEEVEETAAILKKRTIDNEKCKDSDPGFGSLQRRLLQQLYGTLPTDEKIIFTYLQDCQQEIDRIIKQSIIQKESHSVILVGPRQSYKTYLLDYELSLLQQSYKEQFITIRLNGFIHSEQTAINGIATQLEQQLQKIHGSEEKIDDTSLETISSGSLTEVFEKILLLLDSTTKTRNEDSGEVDRESITKITVVFIFDEIDTFAGPVRQTLLYNLFDMVEHSRVPVCIFGCTTKLNILEYLEKRVKSRFSQRVIYMPQIQNLDDMVDAVRNLLTVRSEISPWVSQWNETLEKELSDPRSNLNRHIRMNFETFRSLPTLKNSIIPLVATSKNFGSLCTAIKSCSFLDIYNKNQLSNNLTGRLQSLSDLELAILISAARVALRAKDGSFNFNLAYAEYEKMIKAINSRIPTVAPTTNVGTGQSTFSIDNTIKLWLKKDVKNVWENLVQLDFFTEKSAVGLRDNATAAFYASNYQFQGTMIPFDLRSYQMQIILQELRRIIPKSNMYYSWTQL” it is “not soluble”.
For “GAMSSIFINREYLLPDYIPDELPHREDQIRKIASILAPLYREEKPNNIFIYGLTGTGKTAVVKFVLSKLHKKFLGKFKHVYINTRQIDTPYRVLADLLESLDVKVPFTGLSIAELYRRLVKAVRDYGSQVVIVLDEIDAFVKKYNDDILYKLSRINSEVNKSKISFIGITNDVKFVDLLDPRVKSSLSEEEIIFPPYNAEELEDILTKRAQMAFKPGVLPDNVIKLCAALAAREHGDARRALDLLRVSGEIAERMKDTKVKEEYVYMAKEEIERDRVRDIILTLPFHSKLVLMAVVSISSEENVVSTTGAVYETYLNICKKLGVEAVTQRRVSDIINELDMVGILTAKVVNRGRYGKTKEIGLAVDKNIIVRSLIESDSRFADLWS”, the “soluble on expression in E. coli” value is listed as “soluble”.
“MIPLCREHNKTCRVKVNYHWRVYNEDINKNAVLELSCQCQVLDQLRKTFVELGSSTIHSAADFEFSCITKDGPVVLSSGYEIYNNIRPELSFYHSQLPQLFLHVRILDVSVIAKLDDLGRTVNECKATMKSDKAWRVMKDTEIAEGQLSLQELLDKQQLEIKSLQKDISEMKLENQCRKKEDKNSFKNKEVHEASCDKCQDLIIGHRFKCAICYNYDLCETCEAAGVHAQHALIRLVSENTLFPEHLIVKNPEEVKDQNGQVQAIASSRDRAIQVPLRRLGITPQAIATKNNVSRYLNAQSDRNIIEDPWYAQHMSSRKPQTYERMHPKLKDTTDGKKVQKVSFRDRFYKKAESSLDKHEKQLRFDLSASRQEFIREKEKFRVEKETLMKQKEQIEEMMKQETINFETNRAFFSDRFEPIFNKVKDGKKSEDDTTRKVEFEVETAESNYPGSIFSDEDSLSDLAEILKDIEEYECSSESSDDQEKDDFDVVEEEAKQS”: the “soluble on expression in E. coli” value was “not soluble”.
